Assay results published in patent US10184116B2, “Chimeric genes for the catalytic protein of Oplophorus luciferase and use thereof” (JNC CORPORATION, priority 2014, dated 2019).
Changes are numbered by the printed parent chain. Names may count otherwise.

B1: WNanoKAZ-V90I: single amino acid-substituted WNanoKAZ mutant, valine 90 back to isoleucine; SEQ ID NO: 8 (protein)
chain: FTLADFVGDWQQTAGYNQDQVLEQGGLSSLFQALGVSVTPIQKVVLSGENGLKADIHVIIPYEGLSGFQMGLIEMIFKVVYPVDDHHFKIILHYGTLVIDGVTPNMIDYFGRPYEGIAVFDGKKITVTGTLWNGNKIIDERLINPDGSLLFRVTINGVTGWRLCERILA
B2: WNanoKAZ-E115P: WNanoKAZ with substitution of proline for glutamic acid at position 115; SEQ ID NO: 10 (protein)
chain: B1 chain with I90V, E115P
B3: WNanoKAZ-K124Q: single amino acid-substituted WNanoKAZ mutant K124Q; SEQ ID NO: 12 (protein)
chain: B1 chain with I90V, K124Q
B4: WNanoKAZ-I138Y: single amino acid-substituted WNanoKAZ mutant I138Y; SEQ ID NO: 14 (protein)
chain: B1 chain with I90V, I138Y
B5: WNanoKAZ-R166N: single amino acid-substituted WNanoKAZ mutant R166N; SEQ ID NO: 16 (protein)
chain: B1 chain with I90V, R166N

Experiments:
[1] = Luminescence activity of ZZ-fused WNanoKAZ mutants in crude enzyme solution (Example 10); format: biochemical; settings: coelenterazine substrate; for Relative luminescence activity (Imax): ZZ-fused, pCold-ZZ-P- vector in E. coli, KAZ = 1.0; for fold higher activity than native KAZ / fold higher activity than the relative activity 7.4 of dnKAZ: Imax
Description: In order to express ZZ-fused KAZ mutants in E. coli, the recombinant plasmid produced in EXAMPLE 8 and pCold-ZZ-P-WNanoKAZ produced in EXAMPLE 1 were used. The crude enzyme solution was prepared in a manner similar to EXAMPLE 2, using the E. coli BL21 strain (Novagen, Madison, Wis.) as a host cell. Then, 5 μL of the crude enzyme solution obtained was subjected to SDS-PAGE analysis to confirm the protein expression in all mutants. In FIG. 1, M and 1 to 8 represent as follows. M: molecular weight size markers; 1: ZZ-P-KAZ; 2: ZZ-P-WNanoKAZ; 3: ZZ-P-WNanoKAZ-V90I; 4: ZZ-P-WNanoKAZ-E115P; 5: ZZ-P-WNanoKAZ-K124Q; 6: ZZ-P-WNanoKAZ-I138Y; 7: ZZ-P-WNanoKAZ-R166N; 8: ZZ-P-dnKAZ. It was confirmed from FIG. 1 that all mutants were expressed.
(§1) DTT was added to the crude enzyme solution obtained in EXAMPLE 9 at a final concentration of 1 mM, and then allowed to stand in an ice-water bath over 8 hours or more. After 1 μL of the crude enzyme solution was added to 100 μL of 30 mM Tris-HCl (pH 7.6)-10 mM EDTA (Wako Pure Chemical Industries, Ltd.) containing 1 μg of coelenterazine (manufactured by JNC Corp.), a luminescence reaction was started. Luminescence activity was measured for 60 seconds using a luminometer (manufactured by Atto Inc.: AB2200). The maximum intensity of luminescence (Imax) was given as a relative luminescence activity (rlu).

[2] = Substrate specificity of WNanoKAZ mutants, crude enzyme solution (Example 11); format: biochemical; settings: for Relative luminescence activity, 6h-CTZ, Imax / Relative luminescence activity, 6h-CTZ, Int.: substrate 6h-CTZ; for Relative luminescence activity, 6h-f-CTZ, Imax / Relative luminescence activity, 6h-f-CTZ, Int.: substrate 6h-f-CTZ; for Relative luminescence activity, CTZ, Imax / Relative luminescence activity, CTZ, Int.: substrate CTZ
Description: as §1
Each of the coelenterazine analogues used for substrate specificity studies was synthesized by the methods described in publications. Specifically, bis-coelenterazine was synthesized by the method described in Nakamura et al. (1997) Tetrahedron Lett. 38: 6405-6406, furimazine by the method described in Hall et al. (2012) ACS Chem. Biol. […], and, 6h-coelenterazine, f-coelenterazine and 6h-f-coelenterazine by the method described in Inouye et al (2013) Biochem. Biophys. Res. Commun. 437: 23-28. Luminescence activity was measured by the same method as in EXAMPLE 10, using the crude enzyme solution obtained in EXAMPLE 10, in which coelenterazine or its analogue was used as the luminescence substrate.

CHO-K1 cells = test: Luminescence activity of WNanoKAZ mutants expressed by secretory expression vectors in animal culture cells (Example 13); format: cell-based, Chinese hamster; settings: pcDNA3-GLsp- secretory vector, coelenterazine substrate
Description: Chinese hamster ovary cell line CHO-K1 was cultured in Ham's F-12 medium (manufactured by Wako Pure Chemical Industries, Ltd.) supplemented with 10% (v/v) fetal bovine serum (manufactured by Biowest Inc.). The CHO-K1 cells were seeded in a 6-well plate in 1×10^5 cells/well/2 mL medium (n=2) and cultured in an incubator at 37° C. in 5% (v/v) CO2. After 24 hours, the purified recombinant plasmid was transfected to CHO-K1 cells using a FuGene HD transfection kit (manufactured by Promega Corp.) and the cells were used for subsequent experiment. Specifically, 1 μg of the recombinant plasmid, 0.1 μg of the internal standard vector pGL4.13 [Luc2/sv40] and 3 μL of FuGene HD were added to 100 μL of the medium and allowed to stand at room temperature for 15 minutes. Subsequently, 100 μL of the DNA-FuGene complex solution was added to the cells in the 6-well plate. After incubation for 46 hours, the culture medium was collected. On the other hand, the KAZ mutant expressed in the cells was washed 3 times with 3 mL of 1×PBS, then suspended in 1 mL of 1×PBS and disrupted by sonication on ice. The resultant cell extract of WNanoKAZ was used as the enzyme solution.
After adding 5 μL of the culture medium and cell extract obtained in EXAMPLE 5 to 100 μL of 30 mM Tris-HCl (pH 7.6)-10 mM EDTA (Wako Pure Chemical Industries, Ltd.) containing 1 μg of coelenterazine (manufactured by JNC Corp.), a luminescence reaction was started. Luminescence activity was measured for 60 seconds using a luminometer (manufactured by Atto Inc.: AB2200). The maximum intensity of luminescence (Imax) was given as a percentage (%).
The recombinant plasmid obtained in EXAMPLE 12 or 4 was purified in a manner similar to EXAMPLE 5 and dissolved in sterile water. The firefly luciferase vector (pGL4.13 [Luc2/sv40]: manufactured by Promega Corp.) was similarly prepared and used as an internal standard.
Culture medium containing two amino acid-substituted KAZ mutants and three amino acid-substituted KAZ mutants and cell extracts of the KAZ mutants as the enzyme solutions were prepared by the same procedure as in EXAMPLE 9.
The resultant culture medium and cell extracts were used to measure luminescence activity as in EXAMPLE 6.

| Molecule | Relative luminescence activity (Imax) [1] | fold higher activity than native KAZ [1] [fold] | fold higher activity than the relative activity 7.4 of dnKAZ [1] [fold] | Relative luminescence activity, Furimazine, Imax [2] | Relative luminescence activity, bis-CTZ, Imax [2] | Relative luminescence activity, f-CTZ, Imax [2] | Relative luminescence activity, h-CTZ, Imax [2] | Relative luminescence activity, Furimazine, Int. [2] | Relative luminescence activity, bis-CTZ, Int. [2] | Relative luminescence activity, f-CTZ, Int. [2] | Relative luminescence activity, h-CTZ, Int. [2] | fold higher activity than the other coelenterazine analogues when coelenterazine was used as the substrate [2] [fold] | Relative luminescence activity, 6h-CTZ, Imax [2] | Relative luminescence activity, 6h-CTZ, Int. [2] | Relative luminescence activity, 6h-f-CTZ, Imax [2] | Relative luminescence activity, 6h-f-CTZ, Int. [2] | Relative luminescence activity, CTZ, Imax [2] | Relative luminescence activity, CTZ, Int. [2] | Relative luminescence activity (%, Imax) Cell extracts (CHO-K1 cells) [%] | Relative luminescence activity (%, Imax) Culture medium (CHO-K1 cells) [%] | other results |
| --- | --- | --- | --- | --- | --- | --- | --- | --- | --- | --- | --- | --- | --- | --- | --- | --- | --- | --- | --- | --- | --- |
| B1 | 34 | 34 | 4.6 | 17 | 23 | 31 | 41 | 15 | 21 | 22 | 22 | 4.6 | 5.1 | 5.6 | 23 | 23 | 34 | 35 | 15 | 0.03 | – |
| B2 | 31 | 31 | 4.2 | 13 | 18 | 22 | 27 | 11 | 19 | 14 | 17 | 4.2 | 5.9 | 6.1 | 14 | 11 | 31 | 26 | 12 | <0.01 | – |
| B3 | 34 | 34 | 4.6 | 18 | 36 | 64 | 70 | 11 | 33 | 40 | 41 | 4.6 | 6.2 | 6.1 | 40 | 35 | 34 | 32 | 21 | 0.03 | – |
| B4 | 8.5 | 8.5 | 1.1 | 11 | 18 | 29 | 35 | 8.9 | 17 | 18 | 22 | 1.1 | 1.7 | 2.8 | 17 | 10 | 8.5 | 8.9 | 10 | <0.01 | activity compared with dnKAZ (in words) [1]: decreased to the same level as that of dnKAZ |
| B5 | 32 | 32 | 4.3 | 17 | 17 | 38 | 43 | 12 | 18 | 27 | 28 | 4.3 | 4.6 | 6.1 | 13 | 8.8 | 32 | 36 | 26 | <0.01 | – |
